Experimental data published in publication doi:10.1101/2022.03.26.485915 (bioRxiv, 2022).

Target: the molecule itself
Test: in-vitro amyloid aggregation

B1: Envelope domain III (EDIII) protein of ZIKV (domain or fragment, Zika virus)
chain: MGVSYSLCTAAFTFTKIPAETLHGTVTVEVQYAGTDGPCKVPAQMAVDMQTLTPVGRLITANPVITESTENSKMMLELDPPFGDSYIVIGVGEKKITHHWHRSGSTIGKGQFYLNELE
  binding result: binds
